Source: article PMC11070302 (Drug resistance updates : reviews and commentaries in …, 2024)

Biological target: the molecule itself
Assay: non-reducing SDS-PAGE and protein staining

B1: PEPD^G278D, a recombinant and enzymatically inactive mutant of human peptidase D (enzyme, UniProt P12955 1-493, looked up)
chain: MAAATGPSFWLGNETLKVPLALFALNRQRLCERLRKNPAVQAGSIVVLQGGEETQRYCTDTGVLFRQESFFHWAFGVTEPGCYGVIDVDTGKSTLFVPRLPASHATWMGKIHSKEHFKEKYAVDDVQYVDEIASVLTSQKPSVLLTLRGVNTDSGSVCREASFDGISKFEVNNTILHPEIVECRVFKTDMELEVLRYTNKISSEAHREVMKAVKVGMKEYELESLFEHYCYSRGGMRHSSYTCICGSGENSAVLHYGHAGAPNDRTIQNGDMCLFDMDGEYYCFASDITCSFPANGKFTADQKAVYEAVLRSSRAVMGAMKPGVWWPDMHRLADRIHLEELAHMGILSGSVDAMVQAHLGAVFMPHGLGHFLGIDVHDVGGYPEGVERIDEPGLRSLRTARHLQPGMVLTVEPGIYFIDHLLDEALADPARASFLNREVLQRFRGFGGVRIEEDVVVTDSGIELLTCVPRTVEEIEACMAGCDKAFTPFSGPK
stoichiometry N: 2
